# B1: Kinesin-associated protein 3 (Homo sapiens), Q92845 (parent)
# chain: MQGEDARYLKRKVKGGNIDVHPSEKALIVHYEVEATILGEMGDPMLGERKECQKIIRLKSLNANTDITSLARKVVEECKLIHPSKLNEVEQLLYYLQNRRDSLSGKEKKEKSSKPKDPPPFEGMEIDEVANINDMDEYIELLYEDIPDKVRGSALILQLARNPDNLEELLLNETALGALARVLREDWKQSVELATNIIYIFFCFSSFSQFHGLITHYKIGALCMNIIDHELKRHELWQEELSKKKKAVDEDPENQTLRKDYEKTFKKYQGLVVKQEQLLRVALYLLLNLAEDTRTELKMRNKNIVHMLVKALDRDNFELLILVVSFLKKLSIFMENKNDMVEMDIVEKLVKMIPCEHEDLLNITLRLLLNLSFDTGLRNKMVQVGLLPKLTALLGNDNYKQIAMCVLYHISMDDRFKSMFAYTDCIPQLMKMLFECSDERIDLELISFCINLAANKRNVQLICEGNGLKMLMKRALKFKDPLLMKMIRNISQHDGPTKNLFIDYVGDLAAQISNDEEEEFVIECLGTLANLTIPDLDWELVLKEYKLVPYLKDKLKPGAAEDDLVLEVVIMIGTVSMDDSCAALLAKSGIIPALIELLNAQQEDDEFVCQIIYVFYQMVFHQATRDVIIKETQAPAYLIDLMHDKNNEIRKVCDNTLDIIAEYDEEWAKKIQSEKFRWHNSQWLEMVESRQMDESEQYLYGDDRIEPYIHEGDILERPDLFYNSDGLIASEGAISPDFFNDYHLQNGDVVGQHSFPGSLGMDGFGQPVGILGRPATAYGFRPDEPYYYGYGS
# partner: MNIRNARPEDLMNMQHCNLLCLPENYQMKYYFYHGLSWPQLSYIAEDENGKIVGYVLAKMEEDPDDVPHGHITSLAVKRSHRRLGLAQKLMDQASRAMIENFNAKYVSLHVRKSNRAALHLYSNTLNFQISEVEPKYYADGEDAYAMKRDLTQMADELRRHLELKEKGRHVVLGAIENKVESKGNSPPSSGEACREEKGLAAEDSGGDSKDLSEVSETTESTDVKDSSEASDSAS
# B2: Zinc finger CCHC domain-containing protein 10 (Homo sapiens), Q8TBK6 (parent)
# chain: MATPMHRLIARRQAFDTELQPVKTFWILIQPSIVISEANKQHVRCQKCLEFGHWTYECTGKRKYLHRPSRTAELKKALKEKENRLLLQQSIGETNVERKAKKKRSKSVTSSSSSSSDSSASDSSSESEETSTSSSSEDSDTDESSSSSSSSASSTTSSSSSDSDSDSSSSSSSSTSTDSSSDDEPPKKKKKK
# partner: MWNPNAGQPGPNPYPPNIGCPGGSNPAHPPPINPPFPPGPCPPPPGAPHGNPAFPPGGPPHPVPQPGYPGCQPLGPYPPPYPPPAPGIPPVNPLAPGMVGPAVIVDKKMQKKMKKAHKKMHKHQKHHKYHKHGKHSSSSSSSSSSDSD
# B3: Inactive peptidyl-prolyl cis-trans isomerase FKBP6 (Homo sapiens), O75344 (parent)
# chain: MGGSALNQGVLEGDDAPGQSLYERLSQRMLDISGDRGVLKDVIREGAGDLVAPDASVLVKYSGYLEHMDRPFDSNYFRKTPRLMKLGEDITLWGMELGLLSMRRGELARFLFKPNYAYGTLGCPPLIPPNTTVLFEIELLDFLDCAESDKFCALSAEQQDQFPLQKVLKVAATEREFGNYLFRQNRFYDAKVRYKRALLLLRRRSAPPEEQHLVEAAKLPVLLNLSFTYLKLDRPTIALCYGEQALIIDQKNAKALFRCGQACLLLTEYQKARDFLVRAQKEQPFNHDINNELKKLASCYRDYVDKEKEMWHRMFAPCGDGSTAGES
# partner: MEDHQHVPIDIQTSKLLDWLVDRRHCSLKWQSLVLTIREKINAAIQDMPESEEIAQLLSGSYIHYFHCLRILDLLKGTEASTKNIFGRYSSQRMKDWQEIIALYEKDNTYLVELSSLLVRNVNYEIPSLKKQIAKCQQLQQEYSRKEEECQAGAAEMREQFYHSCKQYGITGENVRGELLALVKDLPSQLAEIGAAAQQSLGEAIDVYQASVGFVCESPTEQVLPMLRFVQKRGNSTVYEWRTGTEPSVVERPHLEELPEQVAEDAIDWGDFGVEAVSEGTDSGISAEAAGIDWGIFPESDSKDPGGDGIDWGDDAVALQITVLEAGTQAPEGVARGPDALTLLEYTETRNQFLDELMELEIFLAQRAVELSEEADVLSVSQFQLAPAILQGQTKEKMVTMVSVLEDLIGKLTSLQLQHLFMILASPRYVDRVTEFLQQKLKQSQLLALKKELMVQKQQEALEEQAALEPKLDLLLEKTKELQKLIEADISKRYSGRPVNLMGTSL
# B4: Vacuolar-sorting protein SNF8 (Homo sapiens), Q96H20 (parent)
# chain: MHRRGVGAGAIAKKKLAEAKYKERGTVLAEDQLAQMSKQLDMFKTNLEEFASKHKQEIRKNPEFRVQFQDMCATIGVDPLASGKGFWSEMLGVGDFYYELGVQIIEVCLALKHRNGGLITLEELHQQVLKGRGKFAQDVSQDDLIRAIKKLKALGTGFGIIPVGGTYLIQSVPAELNMDHTVVLQLAEKNGYVTVSEIKASLKWETERARQVLEHLLKEGLAWLDLQAPGEAHYWLPALFTDLYSQEITAEEAREALP
# partner: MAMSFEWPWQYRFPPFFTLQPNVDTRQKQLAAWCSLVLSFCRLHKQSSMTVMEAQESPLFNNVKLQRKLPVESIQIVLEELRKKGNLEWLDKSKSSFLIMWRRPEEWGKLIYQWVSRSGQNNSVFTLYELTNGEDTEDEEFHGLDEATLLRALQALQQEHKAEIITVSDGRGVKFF
# B5: Plakophilin-2 (Homo sapiens), Q99959 (parent)
# chain: MAAPGAPAEYGYIRTVLGQQILGQLDSSSLALPSEAKLKLAGSSGRGGQTVKSLRIQEQVQQTLARKGRSSVGNGNLHRTSSVPEYVYNLHLVENDFVGGRSPVPKTYDMLKAGTTATYEGRWGRGTAQYSSQKSVEERSLRHPLRRLEISPDSSPERAHYTHSDYQYSQRSQAGHTLHHQESRRAALLVPPRYARSEIVGVSRAGTTSRQRHFDTYHRQYQHGSVSDTVFDSIPANPALLTYPRPGTSRSMGNLLEKENYLTAGLTVGQVRPLVPLQPVTQNRASRSSWHQSSFHSTRTLREAGPSVAVDSSGRRAHLTVGQAAAGGSGNLLTERSTFTDSQLGNADMEMTLERAVSMLEADHMLPSRISAAATFIQHECFQKSEARKRVNQLRGILKLLQLLKVQNEDVQRAVCGALRNLVFEDNDNKLEVAELNGVPRLLQVLKQTRDLETKKQITDHTVNLRSRNGWPGAVAHACNPSTLGGQGGRITRSGVRDQPDQHGLLWNLSSNDKLKNLMITEALLTLTENIIIPFSGWPEGDYPKANGLLDFDIFYNVTGCLRNMSSAGADGRKAMRRCDGLIDSLVHYVRGTIADYQPDDKATENCVCILHNLSYQLEAELPEKYSQNIYIQNRNIQTDNNKSIGCFGSRSRKVKEQYQDVPMPEEKSNPKGVEWLWHSIVIRMYLSLIAKSVRNYTQEASLGALQNLTAGSGPMPTSVAQTVVQKESGLQHTRKMLHVGDPSVKKTAISLLRNLSRNLSLQNEIAKETLPDLVSIIPDTVPSTDLLIETTASACYTLNNIIQNSYQNARDLLNTGGIQKIMAISAGDAYASNKASKAASVLLYSLWAHTELHHAYKKAQFKKTDFVNSRTAKAYHSLKD
# B6: DNA topoisomerase 3-beta-1 (Homo sapiens), O95985 (parent)
# chain: MKTVLMVAEKPSLAQSIAKILSRGSLSSHKGLNGACSVHEYTGTFAGQPVRFKMTSVCGHVMTLDFLGKYNKWDKVDPAELFSQAPTEKKEANPKLNMVKFLQVEGRGCDYIVLWLDCDKEGENICFEVLDAVLPVMNKAHGGEKTVFRARFSSITDTDICNAMACLGEPDHNEALSVDARQELDLRIGCAFTRFQTKYFQGKYGDLDSSLISFGPCQTPTLGFCVERHDKIQSFKPETYWVLQAKVNTDKDRSLLLDWDRVRVFDREIAQMFLNMTKLEKEAQVEATSRKEKAKQRPLALNTVEMLRVASSSLGMGPQHAMQTAERLYTQGYISYPRTETTHYPENFDLKGSLRQQANHPYWADTVKRLLAEGINRPRKGHDAGDHPPITPMKSATEAELGGDAWRLYEYITRHFIATVSHDCKYLQSTISFRIGPELFTCSGKTVLSPGFTEVMPWQSVPLEESLPTCQRGDAFPVGEVKMLEKQTNPPDYLTEAELITLMEKHGIGTDASIPVHINNICQRNYVTVESGRRLKPTNLGIVLVHGYYKIDAELVLPTIRSAVEKQLNLIAQGKADYRQVLGHTLDVFKRKFHYFVDSIAGMDELMEVSFSPLAATGKPLSRCGKCHRFMKYIQAKPSRLHCSHCDETYTLPQNGTIKLYKELRCPLDDFELVLWSSGSRGKSYPLCPYCYNHPPFRDMKKGMGCNECTHPSCQHSLSMLGIGQCVECESGVLVLDPTSGPKWKVACNKCNVVAHCFENAHRVRVSADTCSVCEAALLDVDFNKAKSPLPGDETQHMGCVFCDPVFQELVELKHAASCHPMHRGGPGRRQGRGRGRARRPPGKPNPRRPKDKMSALAAYFV
# partner: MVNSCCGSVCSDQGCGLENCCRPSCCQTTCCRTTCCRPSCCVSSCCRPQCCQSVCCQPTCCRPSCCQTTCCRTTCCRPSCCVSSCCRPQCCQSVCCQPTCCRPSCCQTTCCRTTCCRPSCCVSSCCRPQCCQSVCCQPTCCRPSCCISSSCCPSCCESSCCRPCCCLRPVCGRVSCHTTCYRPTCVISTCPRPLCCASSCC
# B7: Notch homolog 2 N-terminal-like protein A (Homo sapiens), Q7Z3S9 (parent)
# chain: MCVTYHNGTGYCKCPEGFLGEYCQHRDPCEKNRCQNGGTCVAQAMLGKATCRCASGFTGEDCQYSTSHPCFVSRPCLNGGTCHMLSRDTYECTCQVGFTGKECQWTDACLSHPCANGSTCTTVANQFSCKCLTGFTGQKCETDVNECDIPGHCQHGGTCLNLPGSYQCQCLQGFTGQYCDSLYVPCAPSPCVNGGTCRQTGDFTFECNCLPETVRRGTELWERDREVWNGKEHDEN
# partner: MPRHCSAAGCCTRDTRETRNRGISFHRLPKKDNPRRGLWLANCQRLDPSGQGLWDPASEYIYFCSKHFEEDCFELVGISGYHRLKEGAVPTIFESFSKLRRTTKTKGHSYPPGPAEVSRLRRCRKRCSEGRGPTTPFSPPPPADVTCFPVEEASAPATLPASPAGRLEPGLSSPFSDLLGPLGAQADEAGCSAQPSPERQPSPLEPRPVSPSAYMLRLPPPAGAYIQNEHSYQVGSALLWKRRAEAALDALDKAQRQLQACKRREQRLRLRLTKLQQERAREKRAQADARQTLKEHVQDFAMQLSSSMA
# Variants of: B1
# Conditions: with naa10_human NAA10, P41227
row,effect of a mutation on the interaction,Variant
1,with no effect,E167K

# Variants of: B2
# Conditions: with prr13_human PRR13, Q9NZ81
row,effect of a mutation on the interaction,Variant
1,with no effect,S153P

# Variants of: B3
# Conditions: with ck5p3_human CDK5RAP3, Q96JB5
row,effect of a mutation on the interaction,Variant
1,with no effect,R175Q
2,with no effect,H287N

# Variants of: B4
# Conditions: with vps25_human VPS25, Q9BRG1
row,effect of a mutation on the interaction,Variant
1,with no effect,A17T
2,with no effect,Q185R

# Variants of: B5
# Conditions: with mtus2_human MTUS2, Q5JR59
# Chain of mtus2_human MTUS2, Q5JR59 (Q5JR59 whole entry): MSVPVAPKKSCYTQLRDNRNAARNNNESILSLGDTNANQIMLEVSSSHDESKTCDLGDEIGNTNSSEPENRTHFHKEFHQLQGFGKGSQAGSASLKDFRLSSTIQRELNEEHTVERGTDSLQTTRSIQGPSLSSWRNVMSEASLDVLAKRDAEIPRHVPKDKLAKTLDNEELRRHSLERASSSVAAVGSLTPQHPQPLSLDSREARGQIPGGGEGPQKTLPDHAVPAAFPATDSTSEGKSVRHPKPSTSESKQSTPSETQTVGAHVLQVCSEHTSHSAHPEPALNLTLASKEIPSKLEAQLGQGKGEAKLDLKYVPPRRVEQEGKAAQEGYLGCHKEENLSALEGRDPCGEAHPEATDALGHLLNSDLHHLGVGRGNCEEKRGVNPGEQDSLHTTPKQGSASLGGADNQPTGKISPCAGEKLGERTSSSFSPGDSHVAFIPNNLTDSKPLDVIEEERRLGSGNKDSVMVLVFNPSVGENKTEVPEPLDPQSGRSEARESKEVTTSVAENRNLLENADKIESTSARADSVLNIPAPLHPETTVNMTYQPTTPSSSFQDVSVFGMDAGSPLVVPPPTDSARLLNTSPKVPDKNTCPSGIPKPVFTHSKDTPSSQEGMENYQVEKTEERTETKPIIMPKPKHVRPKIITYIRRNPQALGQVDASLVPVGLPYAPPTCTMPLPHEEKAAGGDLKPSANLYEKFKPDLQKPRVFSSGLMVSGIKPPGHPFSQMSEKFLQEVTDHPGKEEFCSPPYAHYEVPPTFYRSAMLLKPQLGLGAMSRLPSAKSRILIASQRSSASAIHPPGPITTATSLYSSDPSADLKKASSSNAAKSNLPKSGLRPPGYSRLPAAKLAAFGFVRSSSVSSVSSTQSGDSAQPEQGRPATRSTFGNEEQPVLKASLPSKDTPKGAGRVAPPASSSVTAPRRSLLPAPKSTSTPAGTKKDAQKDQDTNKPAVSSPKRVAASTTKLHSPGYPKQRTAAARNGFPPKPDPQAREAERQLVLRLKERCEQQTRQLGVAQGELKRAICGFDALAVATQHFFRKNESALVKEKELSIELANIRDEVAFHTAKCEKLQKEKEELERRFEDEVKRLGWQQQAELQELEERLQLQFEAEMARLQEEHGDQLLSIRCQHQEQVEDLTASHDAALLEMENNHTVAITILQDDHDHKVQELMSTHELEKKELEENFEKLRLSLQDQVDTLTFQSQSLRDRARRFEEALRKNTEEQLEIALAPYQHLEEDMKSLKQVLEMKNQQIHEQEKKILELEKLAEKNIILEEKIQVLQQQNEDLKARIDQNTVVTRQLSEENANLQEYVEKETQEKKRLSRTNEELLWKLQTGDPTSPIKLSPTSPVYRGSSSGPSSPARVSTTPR
row,effect of a mutation on the interaction,Variant
1,with no effect,L366P
2,with no effect,E58D
3,with no effect,A264V

# Variants of: B6
# Conditions: with kr412_human KRTAP4-12, Q9BQ66
row,effect of a mutation on the interaction,Variant
1,with no effect,R267W

# Variants of: B7
# Conditions: with thap7_human THAP7, Q9BT49
row,effect of a mutation on the interaction,Variant
1,with no effect,A115T
2,with no effect,R74Q

# Reference: IntAct's records for PubMed 31515488
